Measurements taken from patent publication US10550165B2, “Peptide for inducing regeneration of tissue and use thereof” (STEMRIM INC., priority 2011, dated 2020).

Legend:
[1] = Youn et al., J Immunol 2008; cited from earlier work
[2] = tested on: mouse bone marrow mesenchymal stem cell line (MSC-1 cells), PDGFRα-positive; experiment: Migration assay (Boyden / 48-well chemotaxis chamber) on bone marrow mesenchymal stem cell line MSC-1; format: cell-based
How it was run: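 Mouse MSC-1 cells (3×10^6 cells/ml in D-MEM with 10% FBS) loaded in the upper wells of a 48-well Boyden chamber with 8 μm polycarbonate membrane; mouse HMGB1 peptides or HEK293-made HMGB1 in lower wells at 100 μg/ml, 5 μM or 10 μM; PBS as negative control. After 4 h at 37° C, migrated cells were Diff-Quik stained.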

[3] = tested on: skin flap made on the back of a rat; experiment: Skin flap (skin damage) model on the back of rats; format: in vivo
Description: Experimental animals used were SD rats (male, eight weeks old). After sufficiently deep anesthesia by isoflurane inhalation, a rectangular skin incision of 3 cm width×7 cm length was made on the back. The cephalic side was left uncut, and the skin was thoroughly detached from the subcutaneous tissues. The three incised sides were sutured to the surrounding skin using #4 silk suture, and protected with Tegaderm (3M) to prevent bacterial infection.
The full-length mouse HMGB1 (100 μg/administration/day) produced in HEK293 and chemically synthesized HMGB1 peptide (amino acids 1 to 44; 50 μg/administration/day) were diluted to 200 μl with phosphate buffer and administered to rats via the caudal vein. The first administration was performed 6 hours after the surgery, and then the agents were administered every 24 hours a total of five times. Phosphate-buffered physiological saline was administered as a negative control. Tegaderm was removed after one week, and the wound region was observed weekly to measure the areas of necrosis and ulceration.
Experimental animals used were 15 SD rats (male, eight weeks old) per group. After sufficient anesthesia by isoflurane inhalation, a rectangular skin incision of 3 cm width×7 cm length was made on the back. The cephalic side was left uncut, and the skin was thoroughly detached from the subcutaneous tissues. The incised three sides were sutured to the surrounding skin using #4 silk suture, and protected with Tegaderm (3M) to prevent bacterial infection.
Chemically synthesized HMGB1 peptide (amino acids 1-44; 50 μg/administration/day) or HMGB1 peptide (amino acids 17-25; 50 μg/administration/day) was diluted to 200 μl with phosphate buffer and administered to the rats with experimental wound. The first administration was performed 6 hours after the surgery, and then the agents were administered every 24 hours a total of five times. Phosphate-buffered physiological saline was administered as a negative control. Tegaderm was removed after one week, and the wound was observed two weeks after the wound production. Uncured areas (ulceration and necrosis) were measured.

[4] = tested on: skin flap made on the back of a rat; experiment: Skin flap (skin damage) model on the back of rats; format: in vivo; settings: six weeks after skin flap production; 50 μg/administration/day, five administrations, FIG. 26
[5] = Side effects after administration of recombinant HMGB1 (previous studies of the inventors); format: in vivo; settings: high concentration administered to mice or rats
Source text: As described above, HMGB1 pharmaceuticals are revolutionary therapeutic agents that promote the recruitment of bone marrow mesenchymal stem cells into blood and accumulation of the cells to damaged tissues, thereby inducing tissue regeneration in the body. […] However, there are also reports that HMGB1 has an inflammatory effect. As described above, there are several findings on HMGB1; however, nothing is known about the effect of fragments of the HMGB1 protein on mesenchymal stem cells or what roles they play in tissue regeneration.

[6] = tested on: mesoangioblasts; settings: Palumbo et al., J. Cell Biol. 2004; cited from earlier work
[7] = tested on: human-derived bone marrow mesenchymal stem cells (hMSC); experiment: Migration assay on human-derived bone marrow mesenchymal stem cells; format: cell-based; settings: human HMGB1 fragments produced in E. coli, 2 μM, FIG. 21B
Source text: Human HMGB1 fragments (2-215, 2-84, 2-44, 45-84, 85-169, 89-185, 89-195, and 89-205) were produced in E. coli and purified using appropriate columns in the same manner as described in Examples 14, 15, and 16 above. However, 89-215 was purified by the same method as used for 89-205 in Example 15.
Using human-derived bone marrow mesenchymal stem cells, each fragment was examined by the same migration assay performed on mouse-derived bone marrow mesenchymal stem cells (MSC-1) as described above. The fragments were used at a final concentration of 2 μM. The human-derived bone marrow mesenchymal stem cells used were hMSC (human Mesenchymal Stem Cell, Takara) at fourth passage. The growth medium used was a mesenchymal stem cell growth medium (MF medium, TOYOBO). The cells were cultured in an incubator under 5% CO2 at 37° C. The medium was changed with a fresh medium every two to four days. The cells were passaged when they reached 80% confluency.

[8] = produced in E. coli, 2 μM, FIGS. 20B and 20C

## 1-215: whole mouse HMGB1 produced in HEK293, positive control [reference compound]
[1]
  LPS-binding activity: known to have the binding activity with lipopolysaccharide (LPS)
[2]; protein and peptides produced using HEK293 (mouse HMGB1), 50 μg/ml, 4 h, FIG. 2A
  migration-promoting activity: showed migration-promoting activity
[3]; one to three weeks after the skin flap was made, versus negative control, FIG. 25
  area of wound section (necrosed section) in the skin flap: effect of shrinking the wound section was confirmed
[3]; one week after surgery, caudal vein, five administrations, full-length 100 μg, peptide 50 μg/administration/day, negative control four of five
  rats in which skin necrosis developed: three of five rats
[3]; seven weeks after surgery, same regimen, negative control four of five, FIG. 24
  rats with severe skin contracture: three of five rats

## (17-25): synthetic peptide consisting of the amino acid sequence from positions 17 to 25 of HMGB1 (AFFVQTCRE; UniProt P09429 17-25, looked up, fragment)
[2]; synthetic peptides, 5 μM, FIGS. 8A and 8B
  migration-promoting activity: weak activity
[3]; two weeks after skin flap production, 50 μg/administration/day, five administrations, 15 SD rats per group, FIG. 26
  ratio of the uncured area relative to the area of the whole skin flap, average: 9.1%
[4]
  ratio of the uncured area relative to the area of the whole skin flap, average: 3.5%

## recombinant HMGB1 protein: recombinant HMGB1 protein administered to mice or rats in the inventors' previous studies
[5]
  side effects: no side effects were observed

B1: amino acids of positions 90 to 176: HMGB1 sequence consisting of the amino acids of positions 90 to 176 (Palumbo et al.) (protein, UniProt P09429 90-176, looked up, fragment)
chain: KDPNAPKRPPSAFFLFCSEYRPKIKGEHPGLSIGDVAKKLGEMWNNTAADDKQPYEKKAAKLKEKYEKDIAAYRAKGKPDAAKKGVV
[6]
  cell migration-promoting activity: almost no activity

B2: amino acids 88 to 162: HMGB1 fragment of amino acids 88 to 162 (Youn et al.) (protein, UniProt P09429 88-162, looked up, fragment)
chain: KFKDPNAPKRPPSAFFLFCSEYRPKIKGEHPGLSIGDVAKKLGEMWNNTAADDKQPYEKKAAKLKEKYEKDIAAY
[1]
  LPS-binding activity: lack the LPS-binding activity

B3: amino acids 1 to 79: HMGB1 fragment of amino acids 1 to 79 (Youn et al.) (protein, UniProt P09429 1-79, looked up, fragment)
chain: MGKGDPKKPRGKMSSYAFFVQTCREEHKKKHPDASVNFSEFSKKCSERWKTMSAKEKGKFEDMAKADKARYEREMKTYI
[1]
  LPS-binding activity: lack the LPS-binding activity

B4: amino acids of positions 1 to 89: HMGB1 sequence consisting of the amino acids of positions 1 to 89 (Palumbo et al.) (protein, UniProt P09429 1-89, looked up, fragment)
chain: MGKGDPKKPRGKMSSYAFFVQTCREEHKKKHPDASVNFSEFSKKCSERWKTMSAKEKGKFEDMAKADKARYEREMKTYIPPKGETKKKF
[6]
  cell migration-promoting activity: almost no activity

B5: 89-185: human HMGB1 fragment, positions 89 to 185, produced in E. coli (protein, UniProt P09429 89-185, looked up, fragment)
chain: FKDPNAPKRPPSAFFLFCSEYRPKIKGEHPGLSIGDVAKKLGEMWNNTAADDKQPYEKKAAKLKEKYEKDIAAYRAKGKPDAAKKGVVKAEKSKKKK
[2]; human HMGB1 fragments 89-215, 89-205, 89-195, 89-185 and their Q column fractions, E. coli, 2 μM, FIGS. 19B and 19D
  migration-promoting activity: stronger activity than any fragments between positions 89 and 215
[7]
  migration-promoting activity: exhibited stronger activity

B6: Human HMGB1 fragment (85-169): human HMGB1 fragment, positions 85 to 169, produced in E. coli (protein, UniProt P09429 85-169, looked up, fragment)
chain: TKKKFKDPNAPKRPPSAFFLFCSEYRPKIKGEHPGLSIGDVAKKLGEMWNNTAADDKQPYEKKAAKLKEKYEKDIAAYRAKGKPD
[2]; produced in E. coli, 2 μM, FIG. 20A
  migration-promoting activity compared with 2-215: stronger migration-promoting activity on bone marrow mesenchymal stem cells than human HMGB1 fragment (2-215)
[2]; [8]
  migration-promoting activity per equal mass (reference taken as 1): 3.6 times
  migration-promoting activity per molar (reference taken as 1): 1.59 times
[7]
  migration-promoting activity: greater than that of human HMGB1 fragment (2-215)

B7: amino acids of positions 1 to 187: HMGB1 sequence of positions 1 to 187 resulting from cleavage at the C terminal end (Palumbo et al.) (protein, UniProt P09429 1-187, looked up, fragment)
chain: MGKGDPKKPRGKMSSYAFFVQTCREEHKKKHPDASVNFSEFSKKCSERWKTMSAKEKGKFEDMAKADKARYEREMKTYIPPKGETKKKFKDPNAPKRPPSAFFLFCSEYRPKIKGEHPGLSIGDVAKKLGEMWNNTAADDKQPYEKKAAKLKEKYEKDIAAYRAKGKPDAAKKGVVKAEKSKKKKEE
[6]
  cell migration-promoting activity: retains the cell migration-promoting activity of HMGB1

B8: amino acids of positions 1 to 176: HMGB1 sequence consisting of the amino acids of positions 1 to 176 (Palumbo et al.) (protein, UniProt P09429 1-176, looked up, fragment)
chain: MGKGDPKKPRGKMSSYAFFVQTCREEHKKKHPDASVNFSEFSKKCSERWKTMSAKEKGKFEDMAKADKARYEREMKTYIPPKGETKKKFKDPNAPKRPPSAFFLFCSEYRPKIKGEHPGLSIGDVAKKLGEMWNNTAADDKQPYEKKAAKLKEKYEKDIAAYRAKGKPDAAKKGVV
[6]
  cell migration-promoting activity: almost no activity
